Source: patent publication US20230295308A1, “ANTAGONISTIC BIPARATOPIC ANTIBODIES THAT SPECIFICALLY BIND FIBROBLAST GROWTH FACTOR RECEPTOR 2 AND METHODS OF USING SAME” (The Broad Institute, Inc., priority 2020, published 2023)

What was measured:
[1] = system: BaF3 cells expressing wild-type FGFR2IIIb; assay: ligand-induced (FGF10) growth of BaF3 cells expressing FGFR2IIIb (FIG. 8); type: cell-based
Procedure: FIG. 8 is a schematic (described at FIG. 7A) and a graph showing the growth of BaF3 cells expressing FGFR2IIIb when treated with FGF10. Anti-FGFR2 antibodies blocked ligand-dependent stimulation of BaF3 cells expressing wild-type FGFR2b. FGFR2b is an isoform of FGFR2 that is predominantly expressed in cholangiocarcinoma.
Antibodies A-F were tested to determine whether they could inhibit the ligand-induced growth of BaF3 cells expressing FGFR2IIIb. Antibodies C, D, and E, which bind FGFR2 Ig-2 and Ig-3, were effective in blocking ligand-induced growth of BaF3 cells expressing wild-type FGFR2IIIb (FIG. 8). The effects of antibodies A-F were then tested on BaF3 cells expressing FGFR2-PHDGH fusions. […] Antibody F inhibited the FGFR2-PHDGH activating fusion in BaF3 cells (FIG. 9).

[2] = system: cells transformed with patient-derived FGFR2 having ECD activating deletion mutations; assay: patient-derived FGFR2 ECD mutation driven cell growth (FIG. 4F); type: cell-based; conditions: fold change from nonspecific IgG control
From the text: FIGS. 4A-4F present schematic diagrams, blots, images, tables and graphs showing that the FGFR2 extracellular domain is important for FGFR2 fusion driven cell growth and transformation and that patient-derived FGFR2 extracellular domain mutations increased transformation capacity. As also shown, some parental antibodies were effective in inhibiting ECD mutation driven cell growth. FIG. 4A is a graph showing that FGFR2-BICC1, FGFR2-AHCYL1, and FGFR2-PHGDH fusions grow faster compared to controls and respond to FGF ligands. The FGFR2 extracellular domain (ECD) contributes to the growth of transformed NIH3T3 cells expressing FGFR2 fusions. […] In addition, the ability of the antibodies described herein to inhibit the growth of the cells that overexpressed the ECD mutant FGFR2 fusions was assessed. […]
Expression of FGFR2-BICC1, FGFR2-AHCYL1, and FGFR2-PHGDH in NIH3T3 cells induced increased proliferation. […] By way of example, antibodies C, D, and E were effective in blocking the growth of cells having a patient-derived FGFR2 ECD activating mutation, as determined by assessing fold-increase or decrease from a nonspecific Ab (IgG) control (FIG. 4F); therefore, combinations of the binding regions of these antibodies in biparatopic antibodies may likely result in a synergistic blocking effect.

[3] = system: BaF3 cells overexpressing FGFR2-PHGDH; assay: combination of BGJ398 and anti-FGFR2 bivalent antibody, isobolograms and Loewe scores (FIGS. 14, 15); type: cell-based; conditions: presence of FGF10, treated for 5 days
From the text: FIGS. 14B-14D provide isobolograms showing synergy between FGFR inhibitor and the anti-[…] bivalent antibody on the different days and supporting the results shown in FIG. 14A. FIG. 14B corresponds to 3 days after treatment with the BGJ398 inhibitor; FIG. 14C corresponds to 4 days after treatment with the BGJ398 inhibitor; and FIG. 14D corresponds to 5 days after treatment with the BGJ398 inhibitor. FIG. 14E provide Loewe scores showing synergy between the FGFR inhibitor and the anti-FGF2 bivalent antibody on the different days and supporting the results shown in FIG. 14A.
FIG. 15A presents charts showing synergy between the FGFR2 small molecule inhibitor BGJ398 and an anti-FGFR2 bivalent antibody (Antibody D) in the presence of FGF ligand (+FGF) in a cell-based assay using BaF3 cells overexpressing an FGFR2 fusion molecule (FGFR2-PHGDH) after 3, 4 and 5 days of treatment with the inhibitor and the antibody. […] FIGS. 15B-15D provide isobolograms showing synergy between the FGFR inhibitor and the anti-FGF2 bivalent antibody on the different days and supporting the results shown in FIG. 15A. FIG. 15B corresponds to 3 days after treatment with the BGJ398 inhibitor; FIG. 15C corresponds to 4 days after treatment with the BGJ398 inhibitor; and FIG. 15D corresponds to 5 days after treatment with the BGJ398 inhibitor. […]

[4] = target: FGFR2 on SNU-16 gastric cancer cell line with FGFR2 amplification (UniProt P21802); assay: FACS on SNU-16 cells, % cells with FITC+ [cont.]
[5] = target: FGFR2 on SNU-16 gastric cancer cell line with FGFR2 amplification (UniProt P21802); assay: FACS on SNU-16 cells, % cells with FITC+ against log antibody concentration; Kd printed in the legend box [cont.]

B1: 2B 1.3.12 (antibody, V domains shown)
VH: EVQLVESGGGLVQPGGSLRLSCAASGFPFTSTGISWVRQAPGKGLEWVGRTHLGDGSTNYADSVKGRFTISADTSKNTAYLQMNSLRAEDTAVYYCARTYGIYDTYDMYTEYVMDYWGQGTLVTVSS
VL: DIQMTQSPSSLSASVGDRVTITCRASQDVDTSLAWYKQKPGKAPKLLIYSASFLYSGVPSRFSGSGSGTDFTLTISSLQPEDFATYYCQQSTGHPQTFGQGTKVEIK
notes: the duobody scheme implies IgG1 with K409R or F405L; also called Antibody D; GE
- blocking ligand-induced growth of BaF3 cells expressing wild-type FGFR2IIIb [1]: effective
- blocking growth of cells having a patient-derived FGFR2 ECD activating mutation [2]: effective
- synergy with BGJ398 in inhibiting FGFR2-PHGDH driven BaF3 cell growth [3]: synergizes
- EC50 (read off the curve) [4]: 0.3 µg/mL
- Kd [5]: 1.78 nM
